Measured values from patent US20200407442A1 (WUXI BIOLOGICS IRELAND, published 2020).
Where a chain is given by its changes, count along the chain named. Values belong to the binder of their own block, whether it stands above or below them.

Key:
[1] = molecular target: T1, full-length human LAG-3 on cells (human, UniProt P18627 23-525); assay: FACS affinity on Flp-In-293 cells expressing human LAG-3
T1 construct: Expressed on Flp-In-293, CHO or 293F transfectants; also called hPro1.FL; cell surface human LAG-3
T1 sequence: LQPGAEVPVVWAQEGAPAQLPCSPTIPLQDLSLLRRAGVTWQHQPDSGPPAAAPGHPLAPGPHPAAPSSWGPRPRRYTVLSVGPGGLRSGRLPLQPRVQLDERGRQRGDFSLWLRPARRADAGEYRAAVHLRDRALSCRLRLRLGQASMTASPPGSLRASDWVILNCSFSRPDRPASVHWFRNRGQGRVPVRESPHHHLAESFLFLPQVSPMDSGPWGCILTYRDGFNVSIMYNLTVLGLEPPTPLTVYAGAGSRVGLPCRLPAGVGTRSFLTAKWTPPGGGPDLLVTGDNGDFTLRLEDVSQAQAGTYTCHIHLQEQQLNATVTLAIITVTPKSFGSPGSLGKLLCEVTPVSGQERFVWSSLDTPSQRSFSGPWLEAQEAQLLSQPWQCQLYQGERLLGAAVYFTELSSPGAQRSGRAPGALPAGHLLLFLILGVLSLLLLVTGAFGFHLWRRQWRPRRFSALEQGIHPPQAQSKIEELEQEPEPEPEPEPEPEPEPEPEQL
Procedure: Antibody binding affinity to cell surface LAG-3 was measured by FACS analysis. Flp-In-293 cells expressing human LAG-3 were transferred in to 96-well U-bottom plates at a density of 5×10⁵ cells/mL. Tested antibodies were serially diluted in wash buffer (1×PBS/1%BSA) and incubated with cells at 4° C. for 1 h. The secondary antibody goat anti-human IgG Fc FITC (3.5 moles FITC per mole IgG) was added and incubated at 4° C. in the dark for 0.5 h. The cells were then washed once and resuspended in 1×PBS/1%BSA, and analyzed by flow cytometry. Fluorescence intensity will be converted to bound molecules/cell based on the quantitative beads (QuantumTM MESF Kits, Bangs Laboratories, Inc.). Affinity was calculated using Graphpad Prism 5.

mFc-tagged LAG-3 protein = molecular target: T2, mFc-tagged LAG-3 protein (human, UniProt P18627 30-450); assay: FACS competition: blocks mFc-tagged LAG-3 binding to MHC-II on Raji cells
T2 construct: also called human LAG-3 ECD with mouse Fc tag
T2 sequence: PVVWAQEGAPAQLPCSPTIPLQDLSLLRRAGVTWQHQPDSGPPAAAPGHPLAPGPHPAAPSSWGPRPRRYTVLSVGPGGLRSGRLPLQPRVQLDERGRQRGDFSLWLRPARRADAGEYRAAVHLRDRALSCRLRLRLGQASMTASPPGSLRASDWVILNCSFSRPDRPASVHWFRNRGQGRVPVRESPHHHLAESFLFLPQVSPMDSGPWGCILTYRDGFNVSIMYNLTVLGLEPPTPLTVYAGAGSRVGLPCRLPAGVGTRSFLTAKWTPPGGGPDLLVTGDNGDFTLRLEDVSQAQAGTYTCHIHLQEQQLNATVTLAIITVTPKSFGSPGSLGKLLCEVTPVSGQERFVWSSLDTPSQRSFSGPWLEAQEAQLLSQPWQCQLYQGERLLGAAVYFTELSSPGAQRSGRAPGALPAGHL
Procedure: Antibodies were serially diluted in 1% BSA-PBS and incubated with mFc-tagged LAG-3 protein at 4° C. for 30 min. The mixture was transferred into the 96-well plates seeded with Raji cells. Goat anti-mouse IgG Fc-PE antibody was used to detect the binding of LAG-3 protein to Raji cells. The MFI was evaluated by flow cytometry and analyzed by the software FlowJo (version 7.6.1).

[2] = molecular target: T1, full-length human LAG-3 on cells; assay: FACS competition on Flp-In-293 cells expressing human LAG-3: biotinylated BMK1 at 1 ug/mL, serially diluted antibody, Streptavidin-PE
Procedure: The binding epitope of LAG-3 antibodies was binned against benchmark antibodies BMK1, BMK7 and BMK5 by FACS assay. Flp-In-293 cells expressing human LAG-3 at the cell surface were incubated with biotinylated benchmark antibodies at concentration of 1 μg/mL for 1 hour, followed by the adding of serially diluted LAG-3 antibodies. Streptavidin-PE antibody (Jackson Immunoresearch Lab) was used to detect the binding of benchmark antibodies to cells. The MFI was evaluated by flow cytometry and analyzed by FlowJo.

[3] = molecular target: T3, human LAG-3-ECD.D12.mFc mutant G130A (human, UniProt P18627 37-252); assay: ELISA, antibody coated, LAG-3 D12.mFc mutant in supernatant, normalised to control mutants
T3 construct: Alanine scanning mutant; construct limits as for m26
T3 chain: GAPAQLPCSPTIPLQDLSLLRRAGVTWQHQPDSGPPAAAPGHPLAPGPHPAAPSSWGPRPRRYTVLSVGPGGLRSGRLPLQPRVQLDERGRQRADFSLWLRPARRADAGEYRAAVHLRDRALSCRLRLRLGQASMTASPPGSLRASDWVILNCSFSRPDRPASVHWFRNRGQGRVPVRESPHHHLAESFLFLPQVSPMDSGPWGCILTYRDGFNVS
Summary of the method: (§1)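 Antibody 1.53.3-uAb-IgG4k or 3.40.19-uAb-hIgG4L coated at 2 μg/mL, then exposed to supernatant containing quantified LAG-3 D12.mFc mutants. Detection with HRP anti-mFc (1:5000). Absorbance normalized to mean of control mutants; binding fold change <0.75 set as epitope cutoff.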

[4] = molecular target: T4, human LAG-3-ECD.D12.mFc mutant L136A (human, UniProt P18627 37-252); assay: as above
T4 construct: Alanine scanning mutant; construct limits as for m26
T4 chain: T3 chain with A94G, L100A
Summary of the method: as §1

Kd [1]: 0.16 nM
EC50 (mFc-tagged LAG-3 protein): 0.8 nM
IC50 (read off the curve) [2]: ~5 nM
B1: 1.53.3-uAb-IgG4k (antibody, V domains shown)
VH: QVQLQQWGAGLLKPSETLSLTCGVYGGSFSGYYWSWIRQPPGMGLEWIGEINHRGNTNYNPSLKSRVTISEDTSKNQFSLRLSSVTAADTAVYFCTRGEDYSDYDYYGDFWGQGTLVTVSS
VL: EIVLTQSPATLSLSQGERATLSCRASQSISSYLAWYQQKPGQAPRLLIYAASNRATGIPARFSGSGSGTDFTLTISSLEPEDFAIYYCQQRSNWPLTFGGGTKVEIK
notes: Fully human antibody from OMT rats; IgG4 kappa by its name

Kd [1]: 0.053 nM
EC50 (mFc-tagged LAG-3 protein): 0.67 nM
Fold Change [3]: 0.102
Fold Change [4]: 0.043
B2: 3.40.19-uAb-IgG4L (antibody, V domains shown)
VH: QLQLQESGPGLVKPSETLSLTCTVSGDSISSTSYYWGWIRQPPGKGLEWIGSFYYSGSTYYNPSLKSRVTISVDTSKNQFSLKLNSVTAADTAVYYCARMQLWSYDVDVWGQGTTVTVSS
VL: QSALTQPASVSGSPGQSITISCTGTSSDVGGYDYVAWYQQHPGKVPKLMIYDVSERPSGVSNRFSGSKSGNTASLTISGLQAEDEADYYCSSYTSTTTLVVFGGGTKLSVL
notes: Fully human antibody from OMT rats; IgG4 lambda by its name; also called 3.40.19-uAb-hIgG4L
